Test results as given in paper PMC3115872, “Characterization of the expression, promoter activity and molecular architecture of fibin” (BMC Biochemistry, 2011).

Target: the molecule itself
Experiment: non-reducing SDS-PAGE with Western blot; lysates of transfected COS-7 cells harvested after 72 h; equal amounts of protein separated by SDS-PAGE under non-reducing conditions; immunoblot with anti-fibin-2 antibody

B1: fibin (mouse), wild type (natural protein, UniProt Q9CQS3 19-217, looked up)
chain: YFDGPLYPEMSNGTLHHYFVPDGDYEENDDPEKCQLLFRVSDRRRCSQGEGGQASSLLSLTLREEFTVLGRQVEDAGRVLEGISKSISYDLDGEESYGKYLRRESHQIGDAYSNSDKSLTELESKFKQGQEQDSRQESRLNEDFLGMLVHTRSLLKETLDISVGLRDKYELLAHTIRSHGTRLGRLKSDYLEGGAQKTG
modifications: N-glycosylated at Asn30
notes: mouse fibin; also called WT fibin; wild-type fibin; source: COS-7, transfected (pcDps vector), in lysate
- stoichiometry N: 2
